{
  "source": "paper PMC7028823",
  "about": "“EF1025, a Hypothetical Protein From Enterococcus faecalis, Interacts With DivIVA and Affects Cell Length and Cell Shape” (Frontiers in Microbiology, 2020)",
  "key": {"[1]": {"biological_target": "DivIVAEf (bacterial two-hybrid fusion) (Enterococcus faecalis JH2-2) (UniProt Q93C53)", "assay": "two-hybrid; bacterial two-hybrid (Di Lallo) in E. coli R721, vectors pcI434-L and pcIp22-L, 0.1 mM IPTG; residual β-galactosidase activity, less than 50% indicates a positive interaction"}, "[2]": {"biological_target": "the molecule itself", "assay": "SEC-MALS; 1 mg purified 6×His-EF1025 on Superdex 200 in 50 mM Tris base, 400 mM NaCl, pH 7.4; also with 1 mM dithiothreitol"}},
  "data": [
    {"molecule": "EF1025-c (AA80-209 of EF1025), bacterial two-hybrid fusion (domain or fragment)", "values": [
      {"measurement": "residual β-galactosidase activity", "setting": "[1]", "value": 14, "unit": "%"}
    ]},
    {"molecule": "6×His-EF1025 (natural protein, Enterococcus faecalis JH2-2, UniProt Q836T2 1-209, looked up, hypothetical protein EF1025 of Enterococcus faecalis (209 AA), gene amplified with primers EF1025F-F/R and cloned into pET30a(+); Vector pET30a(+); also called pETEF1025; source: E. coli C41 (DE3), in lysate supernatant (pull-down); copies: 10) MKLSKRQEQIIAVVKEHQPVSGERISDILAVSRATLRSDLSFLTLSGILKASPKVGYTYESDNMEAFFFFDVFQTKVQEIMSPPLMVAQDTSIRDAITNLFMYDVGSLYVMDEAKELLGVLSRKDLLRASLNTNIDGTPVAVCMTRVPHVKTCTPEFTILEAADTLQKYEVDSLPVVEKENPKKVIGKITKTKILTYITQQAKEAAQNR", "values": [
      {"measurement": "stoichiometry N", "setting": "[2]", "value": 10}
    ]}
  ]
}
